Laboratory results published in the nanobody polyreactivity screen of Harvey et al. (2022).

Assay: yeast display, Sf9 membrane polyspecificity reagent, FACS + sequencing; frameworks hold sequencing errors
Method in brief: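 Genes from sorted yeast were amplified by colony PCR, read by MiSeq 2 × 250 sequencing and filtered on CDR length. These cells carried a synthetic nanobody library in Saccharomyces cerevisiae BJ5465 and were sorted by FACS into low and high (top ~1%) gates on anti-HA and streptavidin fluorescence. Polyreactivity is labelled according to the gate of origin.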

Sequence | polyreactivity (PSR sort gate)
QVQLVESGGGLVQAGGSLRLSCAASGSTFRPNAMGWYRQAPGKERELVAAINRGGRTNYADSVKGRFTISRDNAKNTVYLQMISLKPEDTAVYYCAAYIAGRYGARGYDYWGQGTQVTVSS | high polyreactivity
QVQLVESGGGLVQAGGSLRLSCAASGGIFHGNTMGWYRQAPGKERELVAAISNSGGSTYYADSVKGRFTISRDNAKNTVYLQMNSLKPEDTAVYYCARVGYKLYQYKYDYWGQGTQVTVSS | low polyreactivity
QVQLVETGGGLVQAGGSLRLSSAASGGIFSPNAMGWYRQAPGKEREFVAAISSNGGSTNYADSVKGRFTISRDNAKNTVYLQMNSLKPEDTAVYYCAADYPDHPLWGPEYDYWGQRTQVTVSS | low polyreactivity
QVQLVESGGGLVQAGGSLRLSCAASGRTFDYNTMGWYRQAPGKERELVAAISASGGSTYYADSVKGRFTISRDNAKNTVYLQMNSLKPEDTAVYYCAAARAAIVPGYYSWGQGTQVTVSS | low polyreactivity
QVQLVESGGGLVQAGGSLRLSCAASGFILLDNAMGWYRQAPGKEREFVASINISGDRTFYADSVKGRFTISRDNAKNTVYLQMNSLKPEDTAVYYCAKEPGWGRRSTTAYDYWGQGTQVTVSS | low polyreactivity
QVHLVESGGGLVQAGGSLRLSCAASGSIFFGNAMGWYRQAPGKERQLVAAISTTGGSTYYADSVKGRFTISRDNAKNTVYLQMNSLKPEDTAVFFCNSDRATWWEQWWYDYWGQGTQVTVSS | low polyreactivity
QVQLVESGGGLVQEGGRLRLSCAASGRIFWDNDMGWYRQAPGKERELVAAISRRGGSTSYADSVKGRFTISRDNAKNTVYLQMNSLKPEDTAVFYCNVRTRWTRVRRYDYWGQVTQVTVSS | high polyreactivity
QVQLVESGGGLVQAGGSLRLSCAASGRIFGLYAMGWYRHAPGKEREFVAANNWDGGSTFYADSVKGRFTISRDNAKNTVYLQMNSLKPEDTAVYSCAADVYSYVSYSTYVSVFTYDYWGQGTQVTVSS | low polyreactivity
QDQLVESGGGLVQAGGSLRLSCAASGFIFYYYAMGWYRPAPGKERELVAAISGSGGSTYYADSVKGRFTISRDNAKNTVYLQMNSLKPEDTAVYYCNARRPGYYVYYFAYDYWGQGTQVTVSS | high polyreactivity
QVQLEDSGGGLVQAGVSLRLSSDASGSTIAGYVMGWYRQAPGKERELVAAISRSGGSTYYADSVKGRFTISRDNEKNTVYLQMNSLKPEDTAVYYCASRNSPGFPGDYWGQGSQVTVSS | high polyreactivity
QVQLVESGGGLVQAGGSLRLSCAASGRIFDPNVMGWYRQAPGKERELVAAIRTSGGRTYYADSVKGRFTISRDNAKNTVYLQMHSLKPEDTAVYYCAKVNRAFPKYLIYGYWGQGTQVTVSS | high polyreactivity
QVQLVESVGGLVQAGGSLRLSCAASGRTFAGNAMGWYRQAPGKEREFVASITASGVNTYYADSVKGRFTISRDNAKNTVYLQMNSLKPEDTAVYYCNKRNRWTPFYTYDYWGQGTQVTVSS | low polyreactivity
QVLLVESGGGLVQAGGSIRLSCDASGLTFYQNSMGWYRQAPGKERELVAAISSTRITNYADSVKVRFTLSRDNAKTPVYLQMNSLIPEDTAVYYCNADYHPFFFEFIYWGQGTQGTVSS | high polyreactivity
QVQLVESGGGLVQAGGSLRISCAASGSIFGGYSMGWYRQAPGKERELVAAIRYSGVSTYYADSVKGRFTISRDNAKYTVYFQMNSLKAEDTAVYYCNAVPFYYHYDYWGQGTQVTVSS | high polyreactivity
QVQLVESGGGLVQAGGSLRLSCAASGSIFYGNALGWYRQAPGKEREFVAAISSSGGSTYYADSVKGRFTISRDNAKNTVYLQMNSLKPEDTAVYYCAARGPKHTHSRRYFTEYDYWGQGTQVTVSS | low polyreactivity
QVQLVESGGGLVQAGGSLRLSCAASGFTFRYNTMGWYRQAPGKERELVAAISSSGGRTYYADSVKGRFTISRDNAKNTVYLQMNSLKPEDTAVYYCNAVTRESGGFDYWGQGTQVTVSS | high polyreactivity
QDQLVESGGGLVQAGGSLRLSCAASGLTFRKNAMGWSRQAPGKERELVAAISTGGRTYYADSVKGRFTISRDNAKNTVYLQMNSLKPEDTAVYYCNTVYVKSGLDYWGQGTQVTVSS | high polyreactivity
